{"source": "patent US20110097326A1", "about": "(IRM, published 2011)", "binders": {"B1": {"name": "NVP-LFC327 (antibody, human IgG1, V domains shown)", "VH": "QVQLVQSGAEVKKPGASVKVSCKASGYTFTAYDMHWVRQAPGQGLEWMGWIDPNSGGTRYAQKFQGRVTMTRDTSISTAYMELSRLTSDDTAVYYCTGVTTWFAYWGQGTLVTVSS", "VL": "DIVMTQSPLSLPVTLGQPASISCRSSQSLVHSNGNTYLNWYQQKPGQPPRLLIYKISNRFSGVPDRFSGSGAGTDFTLKISRVEAEDVGVYYCMQGTHEPYTFGQGKLEIK", "notes": "IgG with human IgG1 constant region and human kappa constant region, from transiently transfected CHO cells; also called TR127 Vh & TR129 Vk"}}, "key": {"[1]": {"target": "TrkB on rat intestinal epithelial (RIE)-TrkB cells", "assay": "cell-based or functional assay"}, "[2]": {"target": "T1, recombinant Fc-TrkB antigen (human) (human, UniProt Q16620 32-430, limits assumed)", "T1 construct": "Biotinylated for the ForteBio assays; also called Fc-hTrkB; human Fc-TrkB; not shown: Fc part", "assay": "BLI (ForteBio Octet), biotinylated Fc-TrkB on streptavidin sensors, IgG at 1E-8 M", "method": "The binding kinetics of IgGs and Fab fragments were analyzed using a ForteBio Octet biosensor. Recombinant Fc-TrkB antigen was biotinylated using the EZ-link biotinylation kit (Pierce) according to the manufacturer's methods. The antigen was then coupled to streptavidin-coated sensors (ForteBio). Fab binding was monitored in real time using bio-layer interferometry analysis and software provided by the manufacturer. Affinities were calculated from the determined association and dissociation constants.\nIgGs with human V-segments were also prepared from transient transfections of CHO cells. IgG preparations were purified and further characterized by kinetic comparison with the reference IgG A10F18.2. Binding kinetics for two of the IgGs with human V-segments were analyzed using a ForteBio Octet system for real-time label-free monitoring of protein-protein interactions."}, "[3]": {"target": "T1, recombinant Fc-TrkB antigen (human)", "assay": "SPR (Biacore S51), Fc-hTrkB amine-coupled to CM-5 chip, IgG in flow, global 1:1 Langmuir fit", "method": "Binding studies on the improved antibodies were performed by immobilizing Fc-hTrkB onto a Series S CM-5 Biacore sensor chip (certified) (Biacore #BR-1005-30). Covalent binding of the Fc-fusion protein was done with the ‘Amine Coupling Kit’ (Biacore #BR-1000-50). The Fc-Fusion protein was attached to the EDC-activated dextran surface at 5 μg/ml in 10 mM sodium acetate, pH 4.5 (Biacore #BR-1003-50) at a flow rate of 10 μL/min\nA range of concentrations of improved antibodies were flowed over the Fc-TrkB captured chip in PBS plus 100 mM NaCl, 0.005% P20 (Biacore #BR-1000-54). The resulting sensorgrams were analyzed using the Biacore S51 Evaluation Software. Data from all concentrations was fitted globally to a 1:1 Langmuir model.\nAlthough this antibody is bivalent, the binding was treated as a 1:1 event."}, "[4]": {"target": "T2, human TrkC-Fc fusion protein (human, UniProt Q16288 32-429, limits assumed)", "T2 construct": "not shown: Fc part", "assay": "ELISA on Trk-hFc fusion proteins, goat anti-human Fab-HRP detection [panel D]", "method": "(§1) FIG. 9A-D illustrate ELISA assays showing specific binding of NVP-LFD253, NVP-LFD254, NVP-LFC325 and NVP-LFC327 to human TrkB-Fc fusion protein but not to human […] or TrkC-Fc fusion proteins. Purified IgG at 2 μg/ml was evaluated for specificity by examining its interaction with three different Trk family members (TrkA, TrkB and TrkC). Secondary Ab are replicates that were blocked and treated with only the goat-anti-human Fab-HRP detection Ab.\n(§2) IgG with human V-segments (e.g., NVP-LFD253, NVP-LFD254, NVP-LFC325, and NVP-LFC327) bind specifically to TrkB but not to TrkA or TrkC. Purified IgG antibodies at 2 μg/ml were evaluated for specificity by examining its interaction with three different Trk family members (TrkA, TrkB and TrkC). Secondary Ab are replicates that were blocked and treated with only the goat-anti-human Fab-HRP detection Ab. As shown in FIG. 9A-D, none of LFD253, LFD254, LFC325 or LFC327 bind to either of these related Trk family receptors."}, "[5]": {"target": "T3, TrkA-Fc fusion protein (human, UniProt P04629-2 34-407, limits assumed)", "T3 construct": "not shown: Fc part", "assay": "ELISA on Trk-hFc fusion proteins, goat anti-human Fab-HRP detection [panel D]", "method": "as §1, §2"}}, "note": "Where “and” joins values, the source holds several entries; their conditions need not be identical. Equal values may be shown once."}
{"binder": "B1", "values": [{"measurement": "EC50, anoikis assay on RIE-TrkB cells", "setting": "[1]", "value": "26.9 ng/ml and 180 pM"}, {"measurement": "Kd", "setting": "[2]", "value": 0.0197, "unit": "nM"}, {"measurement": "koff", "setting": "[2]", "value": "7.9e-06", "unit": "s⁻¹"}, {"measurement": "kon", "setting": "[2]", "value": 401000, "unit": "M⁻¹ s⁻¹"}, {"measurement": "Kd", "setting": "[3]", "value": 0.146, "unit": "nM"}, {"measurement": "koff", "setting": "[3]", "value": "5.76e-05", "unit": "s⁻¹"}, {"measurement": "kon", "setting": "[3]", "value": 393000, "unit": "M⁻¹ s⁻¹"}, {"measurement": "binding result", "setting": "[4]", "value": "no binding (tested: 2 ug/ml)"}, {"measurement": "binding result", "setting": "[5]", "value": "no binding (tested: 2 ug/ml)"}]}
